Tests used:
[1] = target: T1, nucleoid occlusion protein Noc (wild type) (B. subtilis, UniProt P37524 1-283); assay: recruitment to GUV membranes (confocal microscopy); 3 µM unlabelled WT Noc added to Atto488-Noc R89A and GUVs (70:30 POPC:POPG); the mutant alone at 4 µM with 1 mM CTP and 1.5 µM dsNBS does not bind the GUV; details: both partners purified
T1 construct: Nucleoid occlusion protein Noc, a ParB-like protein of B. subtilis; In the microscopy with FtsZ the legends say only 'Noc'; part of it may have been the KCK-tagged, Atto488-labelled form; also called WT Noc; wildtype Noc; source: E. coli Rosetta (DE3), purified (HisTrap, Heparin HP, Superdex-75)
T1 sequence (looked up): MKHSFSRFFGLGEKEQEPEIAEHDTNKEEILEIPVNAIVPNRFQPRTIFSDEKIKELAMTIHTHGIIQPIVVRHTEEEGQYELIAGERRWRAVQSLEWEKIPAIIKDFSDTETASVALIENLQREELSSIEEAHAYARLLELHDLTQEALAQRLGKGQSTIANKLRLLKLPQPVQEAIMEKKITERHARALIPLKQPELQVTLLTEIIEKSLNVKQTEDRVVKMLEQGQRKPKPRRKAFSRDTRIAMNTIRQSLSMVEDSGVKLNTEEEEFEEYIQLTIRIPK

[2] = target: T2, nucleoid occlusion protein Noc (wild type) (Bacillus subtilis (strain 168), UniProt P37524); assay: QCM-D on SLB; FtsZ GTPase assay; non-phase-separated Noc; FtsZ is up-concentrated only in Noc condensates
T2 chain: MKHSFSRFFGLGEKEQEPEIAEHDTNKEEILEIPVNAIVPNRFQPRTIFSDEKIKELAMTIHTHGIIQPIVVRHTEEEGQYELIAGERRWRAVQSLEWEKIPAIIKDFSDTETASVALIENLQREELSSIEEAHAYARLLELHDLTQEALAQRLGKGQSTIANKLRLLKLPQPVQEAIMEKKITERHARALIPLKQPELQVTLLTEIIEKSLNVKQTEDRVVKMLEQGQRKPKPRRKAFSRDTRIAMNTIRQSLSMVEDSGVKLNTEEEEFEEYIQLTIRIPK

[3] = target: T2, nucleoid occlusion protein Noc (wild …); assay: MST; non-phase-separated Noc; labelled FtsZ strongly partitions into Noc condensates once Noc phase separates

B1: Atto488-Noc R89A (non-CTP-binding mutant, KCK-tagged, labelled) (natural protein, B. subtilis, UniProt P37524 1-283, looked up)
chain: MKHSFSRFFGLGEKEQEPEIAEHDTNKEEILEIPVNAIVPNRFQPRTIFSDEKIKELAMTIHTHGIIQPIVVRHTEEEGQYELIAGERAWRAVQSLEWEKIPAIIKDFSDTETASVALIENLQREELSSIEEAHAYARLLELHDLTQEALAQRLGKGQSTIANKLRLLKLPQPVQEAIMEKKITERHARALIPLKQPELQVTLLTEIIEKSLNVKQTEDRVVKMLEQGQRKPKPRRKAFSRDTRIAMNTIRQSLSMVEDSGVKLNTEEEEFEEYIQLTIRIPK
modifications: Atto488 maleimide on cysteine (KCK tag)
notes: Nucleoid occlusion protein Noc of B. subtilis with R89A; Labelling efficiency of ~20% is told for KCK-tagged Noc
Question: Does B1 bind [1]?
Answer: Result: binds

B2: B. subtilis FtsZ (protein)
chain: MLEFETNIDGLASIKVIGVGGGGNNAVNRMIENEVQGVEYIAVNTDAQALNLSKAEVKMQIGAKLTRGLGAGANPEVGKKAAEESKEQIEEALKGADMVFVTAGMGGGTGTGAAPVIAQIAKDLGALTVGVVTRPFTFEGRKRQLQAAGGISAMKEAVDTLIVIPNDRILEIVDKNTPMLEAFREADNVLRQGVQGISDLIATPGLINLDFADVKTIMSNKGSALMGIGIATGENRAAEAAKKAISSPLLEAAIDGAQGVLMNITGGTNLSLYEVQEAADIVASASDQDVNMIFGSVINENLKDEIVVTVIATGFIEQEKDVTKPQRPSLNQSIKTHNQSVPKREPKREEPQQQNTVSRHTSQPADDTLDIPTFLRNRNKRG
Question: Does B2 bind [2]?
Answer: Result: no binding

B3: B. subtilis FtsZ labelled with Alexa-Fluor 647 NHS ester (protein)
chain: MLEFETNIDGLASIKVIGVGGGGNNAVNRMIENEVQGVEYIAVNTDAQALNLSKAEVKMQIGAKLTRGLGAGANPEVGKKAAEESKEQIEEALKGADMVFVTAGMGGGTGTGAAPVIAQIAKDLGALTVGVVTRPFTFEGRKRQLQAAGGISAMKEAVDTLIVIPNDRILEIVDKNTPMLEAFREADNVLRQGVQGISDLIATPGLINLDFADVKTIMSNKGSALMGIGIATGENRAAEAAKKAISSPLLEAAIDGAQGVLMNITGGTNLSLYEVQEAADIVASASDQDVNMIFGSVINENLKDEIVVTVIATGFIEQEKDVTKPQRPSLNQSIKTHNQSVPKREPKREEPQQQNTVSRHTSQPADDTLDIPTFLRNRNKRG
modifications: Alexa-Fluor 647 NHS ester
Question: Does B3 bind [3]?
Answer: Result: no binding
